Reference: US7223834

Test system: 41-mer peptide substrate (41-PS), QTVTWPDMELPLPRNITEGE-ARGSVILTVKPIFEVSPSPL-(BIOTINYL)K

## aggrecan degrading metallo protease (ADMP)
  cleavage of 41-PS to the 21-mer product, HPLC assay: Effect of incubation time was evaluated and found to be linear over the timecourse of the assay
